Experimental data: PMC10474089, “Activation of oxidoreductases by the formation of enzyme assembly” (Scientific Reports, 2023)

Assays:
[1] = target: D-lactate dehydrogenase (DLD) from Gluconobacter oxydans (Gluconobacter oxydans); experiment: SEC; Superdex 200 10/300 GL, 25 °C, 0.75 ml/min, 150 mM NaCl, 0.1 mM DTT, 1 mM EDTA, 25 mM Tris-HCl pH 7.5; assembly state against gel filtration standards
[2] = target: Poly-L-lysine (PLL) hydrobromide (molecular weight: 4000–15,000 Da)
[3] = target: L-lactate oxidase (LOX) derived from Enterococcus faecium (Enterococcus faecium); experiment: SEC; Superdex 200 10/300 GL, 25 °C, 0.75 ml/min, 150 mM NaCl, 0.1 mM DTT, 1 mM EDTA, 25 mM Tris-HCl pH 7.5; assembly state against gel filtration standards
[4] = target: the molecule itself; experiment: as above

D-lactate dehydrogenase (DLD) from Gluconobacter oxydans (enzyme)
stoichiometry N [1]: 4

L-lactate oxidase (LOX) derived from Enterococcus faecium (enzyme)
enzyme activity (DCIP assay, 25 nM LOX) with 1 mM PLL against without PLL, at pH 7 and pH 8 [2]: 7.5 fold | stoichiometry N [3]: 4

B1: Glucose dehydrogenase (GDH) from Acinetobacter calcoaceticus (enzyme, UniProt P13650 25-478, looked up)
chain: DVPLTPSQFAKAKSENFDKKVILSNLNKPHALLWGPDNQIWLTERATGKILRVNPESGSVKTVFQVPEIVNDADGQNGLLGFAFHPDFKNNPYIYISGTFKNPKSTDKELPNQTIIRRYTYNKSTDTLEKPVDLLAGLPSSKDHQSGRLVIGPDQKIYYTIGDQGRNQLAYLFLPNQAQHTPTQQELNGKDYHTYMGKVLRLNLDGSIPKDNPSFNGVVSHIYTLGHRNPQGLAFTPNGKLLQSEQGPNSDDEINLIVKGGNYGWPNVAGYKDDSGYAYANYSAAANKSIKDLAQNGVKVAAGVPVTKESEWTGKNFVPPLKTLYTVQDTYNYNDPTCGEMTYICWPTVAPSSAYVYKGGKKAITGWENTLLVPSLKRGVIFRIKLDPTYSTTYDDAVPMFKSNNRYRDVIASPDGNVLYVLTDTAGNVQKDDGSVTNTLENPGSLIKFTYKAK
notes: PQQ-dependent glucose dehydrogenase, Acinetobacter calcoaceticus; expression vector pET22b-acGDH, a gift from Aisin Cosmos R&D; printed mass 53.7 kDa, calculated pI 8.93; also called acGDH
stoichiometry N [4]: 4

B2: Acetaldehyde dehydrogenase (ALDH) from Sphingomonas wittichii (enzyme)
chain: AQAPITGGRPFADKPFKVEEVARFDSPWAMTFLPGGHMLVTEKAGRLLLLSPDGARRTAVEGVPAVDSSGQGALGEVVAHPDFATNGLVYFSYSAPGSPNGIVLARGKLVGDLGGARLEGVTTLYRAHPLKSGGHYAGRIAFSPDGHLFFSMGERQKFTPAQEPDGVLGKVVRLTMDGQPAPGNPLAAKGFDPAVWSYGHRNPLGLAFDLEGRLWDAEMGPKGGDEVNLILPGRNYGWPIVSNGDHYDGKPIPDHVTRPEFEAPKVSWNPSISPSSLLVYSGKLFPQWRGKALVGALSGEMLILVDLGEEGAKEEARYAMGQRIRAVDQGPDGAVYVLEDKAGGRLLRLMPAG
stoichiometry N [4]: 2
